{"source": "paper PMC10202384", "molecular_target": "recombinant full-length SARS-CoV-2 spike protein with a C-terminal 8x His-tag (SARS-CoV-2) (UniProt P0DTC2)", "test": "BLI; spike with C-terminal 8x His-tag (0.35 μM) immobilised on nickel nitrilotriacetic acid biosensors; αIIbβ3 in solution, zero to 0.51 μM (68 to 512 nM); 20 mM tris pH 7.4, 137 mM NaCl, 1 mM MgCl2, 1 mM MnCl2, 1 mM CaCl2, 50% glycerol plus 1X Octet Kinetics Buffer; 25 °C; global fit"}
{"substance": "platelet-derived purified human αIIbβ3 protein (from UniProt P05106 27-788) (complex)", "values": [{"measurement": "Kd", "result": 47, "unit": "nM"}]}
